The values that follow come from patent CN111518208A (QICHEN BAITAI BEIJING MEDICAL TECH CO LTD, dated 2020).

Substitutions are numbered along the chain they refer to.

B1: 抗人CD47单克隆抗体A2 (antibody, V domains shown)
VH: EVQVQQSGPELVKPGASVKISCKASGYSFTGYFMNWVKQSHGKSLEWIGRINPYNGDTFYNQKFKGKATLTVDKSSSTAHMELLSLTSEDSAVYYCGRGGYGGMDYWGQGTSVTVSS
VL: DVLMTQTPLSLPVSLGDQASISCRSSQSIVHSNGNTYLEWYLQKPGQSPKLLIYKVSNRFSGVPDRFSGSGSGTDFTLKISRVEAEDLGVYYCFQGSHVPYTFGGGTKLEIK
B2: 抗人CD47单克隆抗体A5 (antibody, V domains shown)
VH: EVQLQQSGPELVKPGASMRMSCKASGYSFTGYTMHWVKQSHGTNLEWIGLINPYTGGTNYNQKFKGKATLTLDKSSSTAYMELLSLTSEDFAVYYCARMGLAWFAYWGQGTLVTVSA
VL: B1 VL with L3V, I29L, L38F, E39H, Y92F, F94S, G96S, S97T, I111M
B3: 抗人CD47单克隆抗体A3 (antibody, V domains shown)
VH: QVQLQQPGAELVRPGASVKLSCKASGHTFTNYWMNWIKQRPEQGLEWIGNIDPYDSETHYNQKFKDKAILTVGKSSSTAYMQLSSLTSEDSAVYYCAIWRGYALDYWGQGTSVTVSS
VL: CDVQITQSPSYLAASPGETITINCRASKSISKFLAWYQEKPGKTNNLLIYSGSTLQSGIPSRFSGSGSGTDFTLTISSLEPEDFAMYYCQQHNEYPWTFGGGTKLEIK
B4: 抗人CD47单克隆抗体A1 (antibody, V domains shown)
VH: EFQLQQSGPELVKPGASVKMSCKASGYTFTNYVLHWVKQKPGQGLEWIGYFNPYNDDSKYNEKFKGKATLTSDKSSSTAYMELSSLTSEDSAVYYCARGGYYSMDYWGQGTTVTVSS
VL: DVMTQTPLSLPVSLGDQASISCRASQSLAHSNGYTYLQWYLQKPGQSPKLLIYKVSKRFSGVPDRFSGSGSGTDFTLKISRVEAEDLGVYFCSQSTHVPYTFGQGTKVEIK
B5: 抗人CD47单克隆抗体A6 (antibody, V domains shown)
VH: QVQLQQSGAELVRPGASVTLSCKASGYSFTDSEMHWVKQTPVYGLEWTGVIDPETGNSAYNQKFKGKATLTADKSSNTAYMELRSLTSEDSAVYYCTRGGVFGYPFDYWGQGTTLTVSS
VL: ENVLTQSPAIMAASLGQKVTMTCSATSSVRSSYLHWYQQKSGASPKPLIHRTSNLASGVPARFSGSGSGTSYSLTISSVEAEDDATYYCQQWRGYPYTFGGGTKLEIK

The target of the first test is 细胞膜表面表达的人CD47蛋白 (human, UniProt Q08722 19-323). In words: cell-based or functional assay.
Sequence of 细胞膜表面表达的人CD47蛋白 (Q08722 19-323): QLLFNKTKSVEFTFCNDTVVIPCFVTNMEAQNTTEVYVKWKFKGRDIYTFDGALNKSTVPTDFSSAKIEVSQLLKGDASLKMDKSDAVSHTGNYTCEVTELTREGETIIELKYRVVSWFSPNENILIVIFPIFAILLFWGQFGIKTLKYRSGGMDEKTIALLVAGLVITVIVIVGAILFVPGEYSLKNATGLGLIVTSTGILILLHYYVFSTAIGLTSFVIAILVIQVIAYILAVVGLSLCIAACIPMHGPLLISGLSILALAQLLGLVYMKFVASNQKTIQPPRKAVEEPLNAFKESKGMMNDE
Consider B1, for which the “促吞噬曲线的EC50值 (ATP法, C57BL小鼠腹腔原代巨噬细胞对Raji细胞的吞噬)” value (“促吞噬曲线的EC50值” for short) is 0.00462 微克/毫升.

In the case of B2, the “促吞噬曲线的EC50值” value was 0.00665 微克/毫升.

Consider B3, for which the “促吞噬曲线的EC50值” value was 0.00391 微克/毫升.

For B4, the “促吞噬曲线的EC50值” value was 0.00439 微克/毫升.

With B5, the “促吞噬曲线的EC50值” value was 0.00568 微克/毫升.

For a further test, the target named is T1, 人CD47蛋白胞外区融合蛋白(hCD47-ECD-6His) (human, UniProt Q08722 19-139, limits assumed).
T1 construct: extracellular domain; Made in FreeStyle 293F cells, purified on a nickel column; not shown: linker peptide-6His (连接肽-6His)
T1 sequence (Q08722 19-139 limits assumed): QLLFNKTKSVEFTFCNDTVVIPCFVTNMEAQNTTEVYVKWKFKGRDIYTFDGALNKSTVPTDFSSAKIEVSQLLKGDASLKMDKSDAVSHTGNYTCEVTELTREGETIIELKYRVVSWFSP
Nature of the test: ELISA, hCD47-ECD-6His coated, goat anti-mouse IgG-HRP.
B1 registered a 50% effective concentration (EC50) of 0.007 µg/mL.

Molecule B2 returned a concentration for a half-maximal effect (EC50) of 0.016 µg/mL.

On to B3, for which the half-maximal effective concentration (EC50) stood at 0.01 µg/mL.

B4: the EC50 was 0.016 µg/mL.

With B5, the midpoint of the response, the EC50, lay at 0.01 µg/mL.
